Earlier results on two substances are cited in article PMC5431918 (Scientific Reports, 2017).

The text on the data set: As PAC1, VPAC1 and VPAC2 mRNAs were detected in a rat insulinoma cell line with PAC1 binding prevailing over that of VPAC1 and VPAC2[23], the PAC1 receptor seemed to be a promising alternative for targeting insulinomas. The natural mammalian ligands at the PAC1 receptor are PACAP38 and the truncated form PACAP27. They bind to PAC1, ...

Turning to “PACAP38: natural mammalian ligand at the PAC1 receptor; non-selective PAC1/VPAC1/VPAC2 ligand”, the Stability in plasma result was “unstable in plasma”.

As for “PACAP27: truncated form of PACAP38; non-selective PAC1/VPAC1/VPAC2 ligand”, the Stability in plasma entry is “unstable in plasma”.
